To fix the notation:
B1: PnsB4 (natural protein, UniProt Q8RXS1 25-175, looked up)
chain: QNSGPNHGYWLSKNVNEKRERNLMRGSLCVRKALPHDLPLMAVMVQQIEGMRDIITEKHVWHLSDKAIKNVYMFYIMFTCWGCLYFGSAKDPFYDSEEYRGDGGDGTGYWVYETQEDIEEKARAELWREELIEEIEQKVGGLRELEEAVTK
B2: Lhca1 (natural protein, UniProt Q01667 36-241, looked up)
chain: AGNVGRIRMAAHWMPGEPRPAYLDGSAPGDFGFDPLGLGEVPANLERYKESELIHCRWAMLAVPGILVPEALGYGNWVKAQEWAALPGGQATYLGNPVPWGTLPTILAIEFLAIAFVEHQRSMEKDPEKKKYPGGAFDPLGYSKDPKKLEELKVKEIKNGRLALLAFVGFCVQQSAYPGTGPLENLATHLADPWHNNIGDIVIPFN
B3: NdhC (natural protein, UniProt P56751 1-120, looked up)
chain: MFLLYEYDIFWAFLLISSAIPVLAFLISGVLSPIRKGPEKLSSYESGIEPIGDAWLQFRIRYYMFALVFVVFDVETVFLYPWAMSFDVLGVSAFIEAFIFVLILILGLVYAWRKGALEWS
B4: NdhE (natural protein, UniProt P26289 1-101, looked up)
chain: MILEHVLVLSAYLFLIGLYGLITSRNMVRALMCLELILNAVNMNFVTFSDFFDNSQLKGEIFCIFVIAIAAAEAAIGLAIVSSIYRNRKSIRINQSTLLNK
B5: PnsL3 (natural protein)
chain: not shown
B6: PnsB5 (natural protein, UniProt Q9FG89 49-212, looked up)
chain: AAGLSQIEPDINEDPIGQFETNSIEMEDFKYGYYDGAHTYYEGEVQKGTFWGAIADDIAAVDQTNGFQGLISCMFLPAIALGMYFDAPGEYLFIGAALFTVVFCIIEMDKPDQPHNFEPQIYKLERGARDKLINDYNTMSIWDFNDKYGDVWDFTIEKDDIATR

Assay in all cases: cryo-EM structure
One assay concerns the target T1, PnsB1 (Arabidopsis thaliana (endogenous in the …, UniProt Q9S9N6 45-461)).
T1 sequence (looked up): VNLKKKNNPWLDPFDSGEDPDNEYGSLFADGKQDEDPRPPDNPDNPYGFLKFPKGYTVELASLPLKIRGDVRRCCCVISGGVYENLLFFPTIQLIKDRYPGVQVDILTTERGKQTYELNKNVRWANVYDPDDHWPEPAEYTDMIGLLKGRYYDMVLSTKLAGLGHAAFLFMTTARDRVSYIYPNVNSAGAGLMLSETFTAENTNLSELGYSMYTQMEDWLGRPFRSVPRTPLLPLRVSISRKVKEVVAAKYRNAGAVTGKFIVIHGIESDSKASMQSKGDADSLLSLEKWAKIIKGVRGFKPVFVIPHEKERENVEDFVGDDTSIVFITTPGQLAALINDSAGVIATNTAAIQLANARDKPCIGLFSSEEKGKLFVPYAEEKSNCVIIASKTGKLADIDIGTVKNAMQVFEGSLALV

The assay “PnsB5” deals with B6.
The target in the next assay is T2, NdhD (Arabidopsis thaliana (endogenous in the …, UniProt P26288 1-500)).
T2 sequence (looked up): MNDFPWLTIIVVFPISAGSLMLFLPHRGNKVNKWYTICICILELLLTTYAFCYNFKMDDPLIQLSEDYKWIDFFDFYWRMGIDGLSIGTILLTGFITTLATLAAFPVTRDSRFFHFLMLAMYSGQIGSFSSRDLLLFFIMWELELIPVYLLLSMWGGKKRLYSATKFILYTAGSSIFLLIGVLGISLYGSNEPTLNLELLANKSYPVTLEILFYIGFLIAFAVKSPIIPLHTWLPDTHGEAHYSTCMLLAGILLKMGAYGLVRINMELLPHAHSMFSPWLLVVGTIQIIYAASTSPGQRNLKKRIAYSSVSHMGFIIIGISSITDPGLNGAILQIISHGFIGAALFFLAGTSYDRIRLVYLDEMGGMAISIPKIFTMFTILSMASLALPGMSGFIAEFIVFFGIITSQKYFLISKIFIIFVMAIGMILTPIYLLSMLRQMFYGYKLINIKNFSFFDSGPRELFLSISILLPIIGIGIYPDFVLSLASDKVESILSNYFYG

Another assay concerns the target T3, Lhca5 (Arabidopsis thaliana (endogenous in the …, UniProt Q9C639 33-256)).
T3 sequence (looked up): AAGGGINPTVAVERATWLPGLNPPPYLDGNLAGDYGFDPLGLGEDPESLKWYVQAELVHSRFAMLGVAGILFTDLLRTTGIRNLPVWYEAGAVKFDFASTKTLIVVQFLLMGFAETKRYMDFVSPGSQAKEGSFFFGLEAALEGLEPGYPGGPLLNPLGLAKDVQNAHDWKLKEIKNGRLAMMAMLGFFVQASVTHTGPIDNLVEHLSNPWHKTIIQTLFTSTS

A further assay addresses T4, PnsL1 (Arabidopsis thaliana (endogenous in the …, UniProt O80634 81-238)).
T4 sequence (looked up): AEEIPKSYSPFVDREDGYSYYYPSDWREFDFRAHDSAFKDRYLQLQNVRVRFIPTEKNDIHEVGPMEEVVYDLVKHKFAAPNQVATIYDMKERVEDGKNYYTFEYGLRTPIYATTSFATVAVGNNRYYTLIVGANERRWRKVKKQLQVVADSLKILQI

The target of a further assay is T5, PnsL2 (Arabidopsis thaliana (endogenous in the …, UniProt Q9XI73 69-190)).
T5 sequence (looked up): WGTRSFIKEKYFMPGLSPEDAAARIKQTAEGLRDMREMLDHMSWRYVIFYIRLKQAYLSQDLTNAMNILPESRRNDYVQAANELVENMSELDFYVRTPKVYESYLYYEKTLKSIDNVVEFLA

The assay “PnsB4” has as its target B1.
The next assay concerns the target NdhF (Arabidopsis thaliana (endogenous in the …, UniProt P56752 1-746)).
The target in the next assay is T6, Lhca6 (Arabidopsis thaliana (endogenous in the …, UniProt Q8LCQ4 34-270)).
T6 sequence (looked up): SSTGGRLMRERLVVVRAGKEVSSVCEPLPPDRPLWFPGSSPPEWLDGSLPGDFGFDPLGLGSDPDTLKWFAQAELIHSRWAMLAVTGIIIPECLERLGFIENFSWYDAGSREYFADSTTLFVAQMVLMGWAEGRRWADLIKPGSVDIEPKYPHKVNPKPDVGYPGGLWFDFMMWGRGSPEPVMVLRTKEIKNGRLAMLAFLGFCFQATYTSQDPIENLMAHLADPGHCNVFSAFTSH

NdhF (Arabidopsis thaliana, sequence (P56752 whole entry): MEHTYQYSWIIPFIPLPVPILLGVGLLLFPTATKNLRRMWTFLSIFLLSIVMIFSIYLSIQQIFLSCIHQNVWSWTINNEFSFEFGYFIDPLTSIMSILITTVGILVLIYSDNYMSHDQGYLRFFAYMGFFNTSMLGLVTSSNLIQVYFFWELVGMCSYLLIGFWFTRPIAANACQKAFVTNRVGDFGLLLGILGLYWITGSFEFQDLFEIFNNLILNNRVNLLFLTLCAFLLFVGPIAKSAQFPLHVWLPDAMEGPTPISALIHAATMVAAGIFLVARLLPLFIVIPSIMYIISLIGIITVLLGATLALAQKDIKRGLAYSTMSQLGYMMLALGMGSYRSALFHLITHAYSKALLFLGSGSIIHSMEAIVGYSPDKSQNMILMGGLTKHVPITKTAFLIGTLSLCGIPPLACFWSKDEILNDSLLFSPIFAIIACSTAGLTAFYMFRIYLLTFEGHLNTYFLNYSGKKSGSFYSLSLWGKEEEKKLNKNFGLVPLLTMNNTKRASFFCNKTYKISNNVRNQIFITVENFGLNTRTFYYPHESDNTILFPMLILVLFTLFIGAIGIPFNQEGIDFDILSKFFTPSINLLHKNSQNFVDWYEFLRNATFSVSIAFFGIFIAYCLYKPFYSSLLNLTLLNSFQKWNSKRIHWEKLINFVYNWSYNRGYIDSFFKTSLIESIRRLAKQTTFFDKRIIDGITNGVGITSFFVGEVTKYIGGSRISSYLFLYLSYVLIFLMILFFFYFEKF

In the case of B1, the binding result with PnsB1, with PnsB5 and with NdhD was “binds” throughout.

Turning to B2, the binding result in the assay with Lhca5 is reported as “binds”.

Consider B3, for which the binding result in the assay with PnsL1 and with PnsL2 was “binds” throughout.

As to B4, the binding result in the assay with PnsL1 and with PnsL2 was “binds” in each case.

For B5, the binding result in the assay with PnsB4, with NdhD and with NdhF was “binds” each time.

Consider B6, for which the binding result with PnsB1, with Lhca6 and with NdhD was “binds” in each case.

The record behind these values is doi:10.1101/2021.12.16.472899 (bioRxiv, 2021).
